Laboratory results from patent US10704030B2, “P450-BM3 variants with improved activity” (Codexis, Inc., priority 2015, dated 2020).
Where a chain is given by its changes, count along the chain named. Names and notes keep the numbering of the source.

B1: Variant 17: P450-BM3 variant of SEQ ID NO: 6: K32R; C48S; Y52F; I95P; Q111R; G115R; I176V; L216Y; D232H; E349T; M491A; T577A; E619D; D722S (protein)
chain: MTIKEMPQPKTFGELKNLPLLNTDKPVQALMRIADELGEIFKFEAPGSVTRFLSSQRLIKEACDESRFDKNLSQALKFARDFLGDGLFTSWTHEPNWKKAHNILLPSFSQRAMKRYHAMMVDIAVQLVQKWERLNADEHIEVSEDMTRLTLDTIGLCGFNYRFNSFYRDQPHPFIVSMVRALDEVMNKLQRANPDDPAYDENKRQCQEDIKVMNDYVDKIIADRKARGEQSHDLLTQMLNGKDPETGEPLDDGNISYQIITFLIAGHETTSGLLSFALYFLVKNPHVLQKVAEEAARVLVDPVPSYKQVKQLKYVGMVLNEALRLWPTAPAFSLYAKEDTVLGGEYPLTKGDEVMVLIPQLHRDKTIWGDDVEEFRPERFENPSAIPQHAFKPFGNGQRACIGQQFALHEATLVLGMMLKHFDFEDHTNYELDIKETLTLKPEGFVVKAKSKKIPLGGIPSPSTEQSAKKVRKKAENAHNTPLLVLYGSNAGTAEGTARDLADIAMSKGFAPQVATLDSHAGNLPREGAVLIVTASYNGHPPDNAKQFVDWLDQASADEVKGVRYSVFGCGDKNWAATYQKVPAFIDETLAAKGAENIADRGEADASDDFEGTYEEWRDHMWSDVAAYFNLDIENSEDNKSTLSLQFVDSAADMPLAKMHGAFSTNVVASKELQQPGSARSTRHLEIELPKEASYQEGDHLGVIPRNYEGIVNRVTARFGLSASQQIRLEAEEEKLAHLPLAKTVSVEELLQYVELQDPVTRTQLRAMAAKTVCPPHKVELEALLEKQAYKEQVLAKRLTMLELLEKYPACEMKFSEFIALLPSIRPRYYSISSSPRVDEKQASITVSVVSGEAWSGYGEYKGIASNYLAELQEGDTITCFISTPQSEFTLPKDPETPLIMVGPGTGVAPFRGFVQARKQLKEQGQSLGEAHLYFGCRSPHEDYLYQEELENAQSEGIITLHTAFSRMPNQPKTYVQHVMEQDGKKLIELLDQGAHFYICGDGSQMAPAVEATLMKSYADVHQVSEADARLWLQQLEEKGRYAKDVWAG
modifications: P450_BM3
notes: C48S; Y52F; I95P; Q111R; G115R; I176V; L216Y; D232H; E349T; M491A; T577A; E619D; D722S
B2: Variant 15: P450-BM3 variant of SEQ ID NO: 4: K32R; C48S; I95P; L216Y; D232H; E349T; M491A; N574T; T577A; E619D; D722S (protein)
chain: B1 chain with F52Y, L83A, F88V, R111Q, R115G, V176I, N574T
modifications: P450_BM3
notes: C48S; I95P; L216Y; D232H; E349T; M491A; N574T; T577A; E619D; D722S
B3: Variant 14: P450-BM3 variant of SEQ ID NO: 4: C48S; I95P; G115R; L216Y; D232H; M491A; N574T; D722S (protein)
chain: B1 chain with R32K, F52Y, L83A, F88V, R111Q, V176I, T349E, N574T, A577T, D619E
modifications: P450_BM3
notes: I95P; G115R; L216Y; D232H; M491A; N574T; D722S

Columns and labels:
Assay type in all cases: biochemical
[1] = Validation of generalist properties: oxidation of imatinib by lyophilized P450-BM3 variant, UPLC-MS; conditions: [Imatinib] = 1 mM; for TON: TON = [substrate]*% conversion/[P450]; for FIOPC (A07): fold improvement over parent MCYP-1.2-A07
Procedure, shortened: (§1)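 Lyophilized lysate of E. coli-expressed P450-BM3 variant (stock standardized to 12 μM heme) was incubated 24 h at 30 °C with 1 or 2 mM substrate, 1.0 mM NADP+, 25 mM glucose, 0.5 mg/mL glucose dehydrogenase and 5% DMSO in 100 mM potassium phosphate. Acetonitrile-quenched samples were analyzed by UPLC-MS (positive ESI).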

[2] = Validation of generalist properties: oxidation of loratadine by lyophilized P450-BM3 variant, UPLC-MS; conditions: [Loratadine] = 1 mM; for TON: TON = [substrate]*% conversion/[P450]; for FIOPC (A07): fold improvement over parent MCYP-1.2-A07
Procedure, shortened: as §1

[3] = Validation of generalist properties: oxidation of gefitinib by lyophilized P450-BM3 variant, UPLC-MS; conditions: [Gefitinib] = 1 mM; for TON: TON = [substrate]*% conversion/[P450]; for FIOPC (A07): fold improvement over parent MCYP-1.2-A07
Procedure, shortened: as §1

[4] = Validation of generalist properties over the four substrates screened
Description: For the production of lyophilized protein powders, LB agar plates supplemented with chloramphenicol (30 μg/mL) were streaked with E. coli containing a desired B. megaterium P450-BM3 variant in an IPTG-inducible vector. The plates were grown at 37° C. for 16 hrs before single clones were selected to inoculate a 15 mL Falcon™ tube (Fisher) containing TB media (3 mL) supplemented with chloramphenicol (30 μg/mL). The tube was shaken at 200 rpm, 30° C., and 85% humidity for 20-24 h to grow the cultures to saturation. Then, 2.5 mL of the overnight culture was used to inoculate sterile 1 L flasks containing TB medium (250 mL) supplemented with chloramphenicol (30 μg/mL), trace element solution (as described above), and 0.05 g/L ammonium iron (III) citrate. After being shaken at 250 rpm, 30° C., and 85% humidity to an OD600 of 0.8-1.2, P450 expression was induced by addition of IPTG (500 uM) and the heme precursor 5-aminolevulinic acid (5-ALA) to a final concentration of 500 uM. The cultures were grown for additional 20-24 hours and centrifuged in pre-weighed 250 mL centrifuge bottles for 20 minutes at 4000 rpm, 4° C. The supernatants were discarded, and the centrifuge bottles containing cell pellets were weighed. The pellets were resuspended in 50 mM potassium phosphate buffer with 2 mM DTT, pH 8.0 (5 mL of buffer per gram of cell pellet). The cells were lysed using a microfluidizer homogenizer, and the suspensions of cells and lysate were collected in sterile 50 mL centrifuge tubes. The samples were centrifuged for 30 minutes at 10,000 rpm, 4° C. The clarified lysate was collected into a plastic petri plate and frozen at −80° C. prior to lyophilization. The enzyme-containing lysates were lyophilized using standard methods known in the art.
Enzyme stocks (˜12 μM) were prepared by dissolving ˜20 mg of each enzyme in 100 mM potassium phosphate buffer, pH 8.0 (1 mL). The concentration of each enzyme stock solution was determined by the UV-visible absorption spectroscopy (after centrifugation to remove particulates) and diluted to standardize at 12 μM heme protein. Substrate solutions were prepared by dissolving each substrate in DMSO to reach a final concentration of 20 mM or 40 mM. Reaction mix (235 μL) followed by enzyme solution (50 μL) was added to the plates. The substrate stock solution was added to the enzyme solutions (15 μL at the two different concentrations). Each reaction contained 100 mM potassium phosphate, 1.0 mM NADP+, 25 mM glucose, 0.5 mg/mL glucose dehydrogenase, 5% DMSO and substrate at 1 or 2 mM. Loratadine, imatinib, and gefitinib (See, FIG. 1) were selected as substrates in addition to diclofenac to validate improved BM3 variants. The reactions were shaken at 450 rpm at 30° C. over 24 hours. All reactions were diluted with acetonitrile to a final concentration of 0.5 mM substrate. The plates were then centrifuged at 3,000 g for 1 hour at 20° C. The supernatant was diluted 1:1 with acetonitrile, filtered using a 0.4 micron filter, and analyzed by UPLC-MS.
For UPLC-MS analysis, the quenched and filtered reactions were transferred to 96-well HTP plates for analysis by UPLC on a Waters Acquity H-class system equipped with an autosampler. 1 uL of quenched sample was injected onto an Acquity UPLC HSS T3 column, 100 Å, (1.8 um; 2.1×100 mm). […] Column eluent was monitored by PDA (200-600 nm) prior to MS analysis in positive ESI mode (desolvation temperature 350° C., 3.25 kV spray voltage, cone voltage 25V). […]

[5] = Validation of generalist properties: oxidation of diclofenac by lyophilized P450-BM3 variant, UPLC-MS; conditions: [Diclofenac] = 1 mM; for TON: TON = [substrate]*% conversion/[P450]; for FIOPC (A07): fold improvement over parent MCYP-1.2-A07
Procedure, shortened: as §1

[6] = fold improvement over parent MCYP-1.2-A12

Molecule	% Conv. [1]	TON [1]	FIOPC (A12) [1, 6]	% Conv. [2]	TON [2]	FIOPC (A12) [2, 6]	% Conv. [3]	TON [3]	FIOPC (A12) [3, 6]	performance (% conversion at 1 mM substrate loading) over the substrates screened, in words [4]	% Conv. [5]	TON [5]	FIOPC (A12) [5, 6]	FIOPC (A07) [1]	FIOPC (A07) [2]	FIOPC (A07) [3]	FIOPC (A07) [5]
B1	++++ (15.01-20.00)	‡‡‡‡ (10000-50000)	**** (10.01-15.00)	+ (0-5.00)	‡ (0-1000)	* (0.0-3.0)	++++ (15.01-20.00)	‡‡‡‡ (10000-50000)	*** (5.01-10.0)	improved and significant activity for three out of four substrates screened	++++ (15.01-20.00)	‡‡‡‡ (10000-50000)	* (0.0-3.0)				
B2	++++ (15.01-20.00)	‡‡‡ (5001-10000)		++++ (15.01-20.00)	‡‡‡‡ (10000-50000)		++++ (15.01-20.00)	‡‡‡‡ (10000-50000)		moderate activity for all four substrates	++++ (15.01-20.00)	‡‡‡‡ (10000-50000)		** (3.01-5.0)	* (0.0-3.0)	**** (10.01-15.00)	* (0.0-3.0)
B3	+++ (10.01-15.00)	‡‡‡ (5001-10000)		+++ (10.01-15.00)	‡‡‡ (5001-10000)		++++ (15.01-20.00)	‡‡‡‡ (10000-50000)		moderate activity for all four substrates	++++ (15.01-20.00)	‡‡‡‡ (10000-50000)		* (0.0-3.0)	* (0.0-3.0)	**** (10.01-15.00)	** (3.01-5.0)
